# Assays:
# 6xHis-Bcl-xL^K87D = target: T1, 6xHis-Bcl-xL^K87D (human, UniProt Q07817-1 1-233, K87D, RED-tris-NTA dye on the His tag (Monolith His-Tag Labeling Kit) in MST); test: MST; 6xHis-Bcl-xL proteins labelled with RED-tris-NTA kept constant at 50 nM; GST proteins titrated down from 15 µM to 5 nM; Monolith NT, 5% excitation power, medium MST power; triplicates; conditions: both partners purified
# T1 construct: full-length Bcl-xL with K87D, made from pET45b-Bcl-xL by site-directed mutagenesis; also called full-length Bcl-xL^K87D; purified Bcl-xL^K87D; source: E. coli BL21, purified (NiNTA)
# T1 sequence (Q07817 whole entry K87D): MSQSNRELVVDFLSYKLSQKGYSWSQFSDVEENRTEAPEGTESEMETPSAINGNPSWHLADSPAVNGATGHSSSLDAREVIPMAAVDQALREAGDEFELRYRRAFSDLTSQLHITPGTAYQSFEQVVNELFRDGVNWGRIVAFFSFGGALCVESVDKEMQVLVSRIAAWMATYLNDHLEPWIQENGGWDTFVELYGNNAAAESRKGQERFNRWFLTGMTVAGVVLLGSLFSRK
# 6xHis-Bcl-xL = target: T2, 6xHis-Bcl-xL (human, UniProt Q07817-1 1-233, RED-tris-NTA dye on the His tag (Monolith His-Tag Labeling Kit) in MST); test: as above; conditions: both partners purified
# T2 construct: full-length Bcl-xL cloned in pET45b in the 6xHis-encoding reading frame; also called wild-type 6xHis-Bcl-xL; full-length 6xHis-Bcl-xL; source: E. coli BL21, purified (NiNTA)
# T2 sequence (Q07817 whole entry): as the sequence (Q07817 whole entry K87D) above, with D87K counted along it
Kd (6xHis-Bcl-xL^K87D),Kd (6xHis-Bcl-xL),Binder
~1170 nM,~701 nM,GST-mIP3R1-LBD (domain or fragment) not shown
~990 nM,~495 nM,GST-mIP3R1-Fragment 3 (domain or fragment) SIHGVGELMTQVVLRGGGFLPMTPMAAAPEGNVKQAEPEKEDIMVMDTKLKIIEILQFILNVRLDYRISCLLCIFKREFDESNSQSSETSSGNSSQEGPSNVPGALDFEHIEEQAEGIFGGSEENTPLDLDDHGGRTFLRVLLHLTMHDYPPLVSGALQLLFRHFSQRQEVLQAFKQVQLLVTSQDVDNYKQIKQDLDQLRSIVEKSELWVYKGQGPDEPMDGASGENEHKKTEEGTSKPLKHESTSSYNYRVVKEILIRLSKLCVQESASVRKSRKQQQRLLRNMGAHAVVLELLQIPYEKAEDTKMQEIMRLAHEFLQNFCAGNQQNQALLHKHINLFLNPGILEAVTMQHIFMNNFQLCSEINERVVQHFVHCIETHGRNVQYIKFLQTIVKAEGKFIKKCQDMVMAELVNSGEDVLVFYNDRASFQTLIQMMRSERDRMDENSPLMYHIHLVELLAVCTEGKNVYTEIKCNSLLPLDDIVRVVTHEDCIPEVKIAYINFLNHCYVDTEVEMKEIYTSNHMWKLFENFLVDICRACNNTSDRKHADSILEKYVTEIVMSIVTTFFSSPFSDQSTTLQTRQPVFVQLLQGVFRVYHCNWLMPSQKASVESCIRVLSDVAKSRAIAIPVDLDSQVNNLFLKSHNIVQKTALNWRLSAR
